{"source": "paper PMC10713844", "about": "“Characterization of the enzyme kinetics of EMP and HMP pathway in Corynebacterium glutamicum: reference for modeling metabolic networks” (Frontiers in Bioengineering and Biotechnology, 2023)", "assay_in_all_cases": "initial-rate kinetics, Michaelis-Menten fit", "type_in_all_cases": "biochemical, Corynebacterium glutamicum", "settings_in_all_cases": "PBS with 0.5 mM MgCl2, pH 7.4, 37 °C", "key": {"[1]": {"substrate": "O=C(CO)[C@H](O)[C@H](O)COP(=O)(O)O", "source_text": "initial-rate kinetics, Michaelis-Menten fit on RPI (ribose-5-phosphate isomerase)"}, "[2]": {"substrate": "Nc1ncnc2c1ncn2[C@@H]1O[C@H](COP(=O)(O)OP(=O)(O)OP(=O)(O)O)[C@@H](O)[C@H]1O", "source_text": "initial-rate kinetics, Michaelis-Menten fit on GLK (glucokinase)"}, "[3]": {"substrate": "O=C(O)[C@H](O)COP(=O)(O)O", "source_text": "initial-rate kinetics, Michaelis-Menten fit on PGMA / PMGA / pgma (phosphoglycerate mutase)"}, "[4]": {"substrate": "O=C(CO)[C@H](O)[C@H](O)COP(=O)(O)O", "source_text": "initial-rate kinetics, Michaelis-Menten fit on RPE (ribulose-5-phosphate 3-epimerase)", "remark": "listed apart in the source"}, "[5]": {"substrate": "O=C(O)[C@@H](CO)OP(=O)(O)O", "source_text": "initial-rate kinetics, Michaelis-Menten fit on ENO (enolase; ENO-Y)"}, "[6]": {"substrate": "O=C[C@H](O)COP(=O)(O)O", "source_text": "initial-rate kinetics, Michaelis-Menten fit on GAPDH (glyceraldehyde 3-phosphate dehydrogenase)"}, "[7]": {"substrate": "O=C(CO)COP(=O)(O)O", "source_text": "initial-rate kinetics, Michaelis-Menten fit on TPI (triosephosphate isomerase)"}, "[8]": {"substrate": "O=C[C@H](O)COP(=O)(O)O", "source_text": "initial-rate kinetics, Michaelis-Menten fit on TAL (transaldolase)", "remark": "listed apart in the source"}}}
{"protein": "RPI (ribose-5-phosphate isomerase) (Corynebacterium glutamicum ATCC 13032) (protein) MRVYLGADHAGFETKNAIAEHLKAHGHEVIDCGAHTYDAEDDYPAFCIEAASRTVNDPGSLGIVLGGSGNGEQIAANKVKGARCALAWSVETARLAREHNNANLIGIGGRMHSEEEALAIVDAFLEQEWSNAERHQRRIDILADYERTGIAPVVPNE", "values": [{"measurement": "Km", "setting": "[1]", "value": "420 ± 60", "unit": "µM"}, {"measurement": "Vmax", "setting": "[1]", "value": 11.2, "unit": "µmol/min/mg"}, {"measurement": "kcat", "setting": "[1]", "value": "3.39 ± 0.22", "unit": "s⁻¹"}]}
{"protein": "GLK (glucokinase) (Corynebacterium glutamicum ATCC 13032) (protein) MPQKPASFAVGFDIGGTNMRAGLVDESGRIVTSLSAPSPRTTQAMEQGIFDLVEQLKAEYPVGAVGLAVAGFLDPECEVVRFAPHLPWRDEPVREKLENLLGLPVRLEHDANSAAWGEHRFGAAQGADNWVLLALGTGIGAALIEKGEIYRGAYGTAPEFGHLRVVRGGRACACGKEGCLERYCSGTALVYTARELASHGSFRNSGLFDKIKADPNSINGKTITAAARQEDPLALAVLEDFSEWLGETLAIIADVLDPGMIIIGGGLSNAADLYLDRSVNHYSTRIVGAGYRPLARVATAQLGADAGMIGVADLARRSVVEAN", "values": [{"measurement": "Km", "setting": "[2]", "value": "810 ± 80", "unit": "µM"}, {"measurement": "Vmax", "setting": "[2]", "value": 37.7, "unit": "µmol/min/mg"}, {"measurement": "kcat", "setting": "[2]", "value": "22.2 ± 1.07", "unit": "s⁻¹"}]}
{"protein": "PGMA / PMGA / pgma (phosphoglycerate mutase) (Corynebacterium glutamicum ATCC 13032) (protein) MTNGKLILLRHGQSEWNASNQFTGWVDVNLTEQGEAEAKRGGELLVEAGVLPGVVYTSLLRRAIRTANIALNAADRHWIPVIRDWRLNERHYGALQGLDKAATKEKYGDDQFMEWRRSYDTPPPELADDAEYSQANDPRYADLDVVPRTECLKDVVVRFVPYFEEEILPRAKKGETVLIAAHGNSLRALVKHLDGISDADIAELNIPTGIPLVYEIAEDGSVVNPGGTYLDPEAAAAGAAAVANQGNK", "values": [{"measurement": "Km", "setting": "[3]", "value": "4440 ± 320", "unit": "µM"}, {"measurement": "Vmax", "setting": "[3]", "value": 43.2, "unit": "µmol/min/mg"}, {"measurement": "kcat", "setting": "[3]", "value": "20.4 ± 1.05", "unit": "s⁻¹"}]}
{"protein": "RPE (ribulose-5-phosphate 3-epimerase) (Corynebacterium glutamicum ATCC 13032) (protein) MAQRTPLIAPSILAADFSRLGEQVLAVPDADWIHVDIMDGHFVPNLSFGADITAAVNRVTDKELDVHLMIENPEKWVDNYIDAGADCIVFHVEATEGHVELAKYIRSKGVRAGFSLRPGTPIEDYLDDLEHFDEVIVMSVEPGFGGQSFMPEQLEKVRTLRKVIDERGLNTVIEIDGGISAKTIKQAADAGVDAFVAGSAVYGAEDPNKAIQELRALAQ", "values": [{"measurement": "Km", "setting": "[4]", "value": "2810 ± 1250", "unit": "µM"}, {"measurement": "Vmax", "setting": "[4]", "value": 430, "unit": "µmol/min/mg"}, {"measurement": "kcat", "setting": "[4]", "value": "179 ± 22.2", "unit": "s⁻¹"}]}
{"protein": "ENO (enolase; ENO-Y) (Corynebacterium glutamicum ATCC 13032) (protein) MAEIMHVFAREILDSRGNPTVEAEVFLDDGSHGVAGVPSGASTGVHEAHELRDGGDRYLGKGVLKAVENVNEEIGDELAGLEADDQRLIDEAMIKLDGTANKSRLGANAILGVSMAVAKAAADSAGLPLFRYIGGPNAHVLPVPMMNIINGGAHADSGVDVQEFMIAPIGAETFSEALRNGAEVYHALKSVIKEKGLSTGLGDEGGFAPSVGSTREALDLIVEAIEKAGFTPGKDIALALDVASSEFFKDGTYHFEGGQHSAAEMANVYAELVDAYPIVSIEDPLQEDDWEGYTNLTATIGDKVQIVGDDFFVTNPERLKEGIAKKAANSILVKVNQIGTLTETFDAVDMAHRAGYTSMMSHRSGETEDTTIADLAVALNCGQIKTGAPARSDRVAKYNQLLRIEQLLGDAGVYAGRSAFPRFQG", "values": [{"measurement": "Km", "setting": "[5]", "value": "60 ± 10", "unit": "µM"}]}
{"protein": "GAPDH (glyceraldehyde 3-phosphate dehydrogenase) (Corynebacterium glutamicum ATCC 13032) (protein) MTIRVGINGFGRIGRNFFRAVLERSDDLEVVAVNDLTDNKTLSTLLKFDSIMGRLGQEVEYDDDSITVGGKRIAVYAERDPKNLDWAAHNVDIVIESTGFFTDANAAKAHIEAGAKKVIISAPASNEDATFVYGVNHESYDPENHNVISGASCTTNCLAPMAKVLNDKFGIENGLMTTVHAYTGDQRLHDAPHRDLRRARAAAVNIVPTSTGAAKAVALVLPELKGKLDGYALRVPVITGSATDLTFNTKSEVTVESINAAIKEAAVGEFGETLAYSEEPLVSTDIVHDSHGSIFDAGLTKVSGNTVKVVSWYDNEWGYTCQLLRLTELVASKL", "values": [{"measurement": "Km", "setting": "[6]", "value": "1470 ± 110", "unit": "µM"}, {"measurement": "Vmax", "setting": "[6]", "value": 15.7, "unit": "µmol/min/mg"}, {"measurement": "kcat", "setting": "[6]", "value": "9.71 ± 0.36", "unit": "s⁻¹"}]}
{"protein": "TPI (triosephosphate isomerase) (Corynebacterium glutamicum ATCC 13032) (protein) MARKPLIAGNWKMNLDHQQAIGTVQKLAFALPKEYFEKVDVAVTVPFTDIRSVQTLVEGDKLEVTFGAQDVSQHESGAYTGEVSASMLAKLNCSWVVVGHSERREYHNESDELVAAKAKAALSNGISPIVCVGEPLEIREAGTHVEYVVEQTRKSLAGLDAAELANTVIAYEPVWAIGTGKVASAADAQEVCKAIRGLIVELAGDEVAEGLRILYGGSVKAETVAEIVGQPDVDGGLVGGASLDGEAFAKLAANAASVA", "values": [{"measurement": "Km", "setting": "[7]", "value": "5430 ± 160", "unit": "µM"}, {"measurement": "Vmax", "setting": "[7]", "value": 160, "unit": "µmol/min/mg"}, {"measurement": "kcat", "setting": "[7]", "value": "75.7 ± 2.11", "unit": "s⁻¹"}]}
{"protein": "TAL (transaldolase) (Corynebacterium glutamicum ATCC 13032) (protein) MSHIDDLAQLGTSTWLDDLSRERITSGNLSQVIEEKSVVGVTTNPAIFAAAMSKGDSYDAQIAELKAAGASVDQAVYAMSIDDVRNACDLFTGIFESSNGYDGRVSIEVDPRISADRDATLAQAKELWAKVDRPNVMIKIPATPGSLPAITDALAEGISVNVTLIFSVARYREVIAAFIEGIKQAAANGHDVSKIHSVASFFVSRVDVEIDKRLEAIGSDEALALRGKAGVANAQRAYAVYKELFDAAELPEGANTQRPLWASTGVKNPAYAATLYVSELAGPNTVNTMPEGTIDAVLEQGNLHGDTLSNSAAEADAVFSQLEALGVDLADVFQVLETEGVDKFVASWSELLESMEARLK", "values": [{"measurement": "Km", "setting": "[8]", "value": "290 ± 80", "unit": "µM"}, {"measurement": "Vmax", "setting": "[8]", "value": 6.44, "unit": "µmol/min/mg"}, {"measurement": "kcat", "setting": "[8]", "value": "4.24 ± 0.47", "unit": "s⁻¹"}]}
